Our source for the Kd, koff and kon values is paper PMC8166844, “The FlhA linker mediates flagellar protein export switching during flagellar assembly” (Communications Biology, 2021).

For experiment [1], the target named is T1, His-FlhAC (C-terminal cytoplasmic domain of FlhA, residues 328–692), wild type (Salmonella enterica, UniProt P40729 328-692).
T1 construct: also called wild-type FlhAC; WT
T1 sequence: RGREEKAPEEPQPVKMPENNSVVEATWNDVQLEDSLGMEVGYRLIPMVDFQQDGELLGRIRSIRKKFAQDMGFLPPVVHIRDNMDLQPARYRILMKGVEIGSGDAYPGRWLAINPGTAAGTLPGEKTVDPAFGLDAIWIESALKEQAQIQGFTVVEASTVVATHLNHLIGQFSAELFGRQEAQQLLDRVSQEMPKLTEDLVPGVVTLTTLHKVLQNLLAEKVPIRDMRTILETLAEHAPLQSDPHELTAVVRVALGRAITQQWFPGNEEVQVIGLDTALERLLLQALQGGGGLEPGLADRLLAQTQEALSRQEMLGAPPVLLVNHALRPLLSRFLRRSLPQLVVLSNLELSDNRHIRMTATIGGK
The experiment can be described thus: BLI; GST-FlgN immobilised on an anti-GST sensor tip (BLItz), His-FlhAC or its variants in solution at various concentrations; kinetic buffer PBS pH 7.4, 0.1% BSA, 0.002% Tween-20; 25 °C; FlhAC-ED and FlhAC-EWD fitted with a two-state reaction model, FlhAC-ΔL with a heterogeneous reaction model; n = 3. Particulars: both partners purified. A general note: Biolayer interferometry detects binding as a change in optical thickness at a sensor tip.

The target of experiment [2] is T2, His-FlhAC(E351A/W354A/D356A) (Salmonella enterica, UniProt P40729 328-692, E351A | W354A | D356A).
T2 construct: also called FlhAC-EWD; His-FlhAC-EWD
T2 sequence: T1 sequence with E24A, W27A, D29A
The experiment is described as above. Particulars: both partners purified.

In experiment [3] the target is T3, His-FlhAC lacking FlhAL (residues 328–361) (Salmonella enterica, UniProt P40729 362-692).
T3 construct: also called FlhAC-ΔL; His-FlhAC-ΔL
T3 sequence: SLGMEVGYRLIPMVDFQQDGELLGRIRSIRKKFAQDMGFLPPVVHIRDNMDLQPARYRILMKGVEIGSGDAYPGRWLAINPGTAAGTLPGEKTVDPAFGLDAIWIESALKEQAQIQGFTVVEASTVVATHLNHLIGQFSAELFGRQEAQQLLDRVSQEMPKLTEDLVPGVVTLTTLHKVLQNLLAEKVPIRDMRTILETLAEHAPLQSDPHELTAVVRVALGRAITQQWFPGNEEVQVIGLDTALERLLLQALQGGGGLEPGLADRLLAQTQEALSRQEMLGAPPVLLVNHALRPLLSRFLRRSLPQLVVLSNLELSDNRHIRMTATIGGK
The experiment is described as above. Particulars: both partners purified.

Experiment [4] has as its target GST-FliJ (Salmonella enterica), P0A1K1. The experiment can be described thus: BLI; GST-FliJ immobilised on an anti-GST sensor tip (BLItz), His-FlhAC or its variants in solution at various concentrations; kinetic buffer PBS pH 7.4, 0.1% BSA, 0.002% Tween-20; 25 °C; wild type fitted with a two-state reaction model, FlhAC-EWD and FlhAC-ΔL with the Hill equation; n = 3. As to conditions: remark: other sources report otherwise.

In experiment [5] the target is T4, GST-FlgN (Salmonella enterica), P0A1J7.
T4 chain: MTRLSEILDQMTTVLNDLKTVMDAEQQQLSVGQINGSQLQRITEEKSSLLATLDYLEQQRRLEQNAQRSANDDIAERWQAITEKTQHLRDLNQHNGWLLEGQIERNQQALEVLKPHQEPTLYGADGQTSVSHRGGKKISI
In words: BLI; GST-FlgN immobilised on an anti-GST sensor tip (BLItz), His-FlhAC or its variants in solution at various concentrations; kinetic buffer PBS pH 7.4, 0.1% BSA, 0.002% Tween-20; 25 °C; FlhAC-ED and FlhAC-EWD fitted with a two-state reaction model, FlhAC-ΔL with a heterogeneous reaction model; n = 3. Particulars: remark: other sources report otherwise.

Positions count from the first letter of the chain named. Names may count otherwise.

Chain of GST-FliJ (Salmonella enterica), P0A1K1 (P0A1K1 whole entry): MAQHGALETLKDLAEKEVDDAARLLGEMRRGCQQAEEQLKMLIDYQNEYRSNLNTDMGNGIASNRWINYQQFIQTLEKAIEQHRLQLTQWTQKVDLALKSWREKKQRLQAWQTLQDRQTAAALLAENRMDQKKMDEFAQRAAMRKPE

B1: GST-FlgN (natural protein)
chain: T4 chain
notes: also called pMMGN101
As for B1, the values for the Kd in experiment [1], in experiment [2] and in experiment [3] were 95 nM, 31.2 µM and 3.1 µM, respectively. The same molecule had a dissociation rate constant (koff) in experiment [1] of around 0.000781 s⁻¹. In experiment [1], the kon is around 8230 M⁻¹ s⁻¹.

B2: His-FlhAC (C-terminal cytoplasmic domain of FlhA, residues 328–692), wild type, P40729 328-692 (domain or fragment)
chain: T1 sequence
For B2, the Kd in experiment [4] is 1.36 µM.

B3: His-FlhAC(E351A/W354A/D356A), P40729 328-692 (domain or fragment)
chain: T1 sequence with E24A, W27A, D29A
Molecule B3 displayed a Kd in experiment [4] of 60.7 µM.

B4: His-FlhAC(E351A/D356A), P40729 328-692 (domain or fragment)
chain: T1 sequence with E24A, D29A
With B4, the dissociation constant Kd in experiment [5] worked out at 37.8 µM.

B5: His-FlhAC lacking FlhAL (residues 328–361), P40729 362-692 (domain or fragment)
chain: T3 sequence
B5 gave a dissociation constant Kd in experiment [4] of 49 µM.

As usually defined, the Kd is the equilibrium constant for the complex coming apart. Broadly, the koff is the first-order rate constant of dissociation. A low value points to a long-lived complex. As usually defined, the kon is a measure of how fast the partners come together.
